This note sets out measurements from article PMC3294249.

Test [1] deals with Francisella α2NTD (residues 1-242), bacterial two-hybrid fusion (Francisella tularensis subsp. novicida strain U112). Put plainly: two-hybrid.
Test [2] addresses Francisella α1NTD (residues 1-244), bacterial two-hybrid fusion (Francisella tularensis subsp. novicida strain U112) (UniProt A0Q4K8). The test is described as follows: two-hybrid.

Take “Francisella α1NTD (residues 1-244), bacterial two-hybrid fusion (from UniProt A0Q4K8 1-244) (domain or fragment)”: in test [1], the β-galactosidase activity (Miller units) turned out to be 662 Miller units. With “Francisella α2NTD (residues 1-242), bacterial two-hybrid fusion (domain or fragment)”, the β-galactosidase activity (Miller units) in test [2] worked out at 1410 Miller units.
